We go through two molecules from patent US20220251211A1 (BEIJING SINOTAU BIO PHARMACEUTICALS TECHNOLOGY, published 2022).

In test [1] the target is T1, human PD-L1 on the cell surface (SP2/0 PD-L1 cells stably expressing human PD-L1); also human tumor cell lines … (human, UniProt Q9NZQ7 19-290).
T1 construct: whole, on cells; also called membrane huPD-L1; cell surface PD-L1
As to the kind of experiment: flow cytometry on SP2/0 PD-L1 cells pre-incubated with biotin-huPD-1-hFc; bound antibody detected with anti-human kappa-APC. A general note: In flow cytometry, cells or beads pass a laser one at a time.

The target in test [2] is T2, Mouse PD-L1-his (50010-MO8H, Sino Biological) (mouse, UniProt Q9EP73 19-238).
T2 construct: Bought reagent; also called murine PD-L1; soluble mouse PD-L1; not shown: His tag
Briefly: ELISA, hu1F11 on soluble mouse PD-L1, luminescence as percent of the highest value. An excerpt:
Y-axis is the relative luminescence index generated by antibody/antigen binding and x-axis is the logarithm of antibody concentrations (ng/ml).
In general terms: In an ELISA, binding on a coated surface is turned into a signal by an enzyme label.

Test [3] deals with T1, human PD-L1 on the cell surface (SP2/0 …). Briefly: flow cytometry, displacement of pre-bound biotin-huPD-1-hFc from SP2/0 PD-L1 cells, remaining PD-1 detected with streptavidin-FITC.
In test [4] the target is T2, Mouse PD-L1-his (50010-MO8H, Sino …). As to the kind of experiment: ELISA, m1F11 on recombinant mouse PD-L1, luminescence as percent of the highest value.
For test [5], the target named is T3, Human PD-L1-hFc (B3040, Biointron Biological Inc.) (human, UniProt Q9NZQ7 19-238, limits assumed).
T3 construct: also called recombinant human PD-L1-Fc; hu-PD-L1-Fc; not shown: human Fc of the bought fusion
As to the kind of experiment: ELISA, recombinant human PD-L1, APC-labeled m1F11; recombinant human PD-L1, ELISA.

In test [6] the target is T1, human PD-L1 on the cell surface (SP2/0 …). Briefly: flow cytometry, APC-labeled m1F11 on SP2/0 PD-L1 cells.
Test [7] deals with T4, Cynomolgus PD-L1-his (90251-C08H, Sino Biological) (cynomolgus, UniProt G7PSE7 19-238).
T4 construct: Bought reagent; also called monkey PD-L1; soluble monkey PD-L1
As to the kind of experiment: ELISA, recombinant cynomolgus PD-L1, APC-labeled m1F11.

T3 sequence (Q9NZQ7 19-238 limits assumed): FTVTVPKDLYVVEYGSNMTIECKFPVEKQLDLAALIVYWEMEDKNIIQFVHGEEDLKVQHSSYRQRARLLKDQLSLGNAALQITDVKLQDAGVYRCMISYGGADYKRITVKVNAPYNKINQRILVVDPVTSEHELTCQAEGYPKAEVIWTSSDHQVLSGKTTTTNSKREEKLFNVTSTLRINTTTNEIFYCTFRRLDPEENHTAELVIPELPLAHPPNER
T4 sequence (G7PSE7 entry or part of it C08H C08H limits assumed): as the sequence (Q9NZQ7 19-238 limits assumed) above, with A33T, A34S, S62N, R68Q, Q82R, F173L, T185A, T192I, H215L counted along it

B1: humanized 1F11 (hu1F11) (antibody, human IgG1, kappa, N297A, V domains shown)
VH: QVQLQQSGAELVKPGASVKLSCKTSGFTFSSSYISWVKQSSGQGLEWIAWIYAGTGGTGYNQKFTGRASITVDTSTSTAYMQLSSLTSEDTAIYYCAISASYRYDDLFAYWGQGTLVTVSS
VL: QIVLTQSPASVSASPGEKVTITCSASSSVSSVHWYQQKSGTSPKRWIYDTSKLASGVPARFSGSGSGTSYSLTISSMETEDVATYYCQQWNSNPPTFGTGTKLEIKR
notes: Expressed in 293T cells; also called huIF11; humanized IF11
The term EC50 (read off the curve) denotes the concentration giving half of the maximal effect. Take B1: in test [1], the concentration for a half-maximal effect (EC50 (read off the curve)) is roughly 0.3 µg/mL. Further, the binding result in test [2] is “no binding (tested: log 3.6 on the axis (about 4000 ng/ml))”. The “IC50 (read off the curve)” value in test [3] was roughly 0.9 µg/mL.

B2: m1F11 (murine anti-PD-L1 antibody from hybridoma clone 1F11) (antibody, V domains shown)
VH: QGQMQQSGAELVKPGASVKLSCKTSGFTFSSSYISWLKQKSGQSLEWIAWIYAGTGGTGYNQKFTGKAQLTVDTSSSTAYMQFSSLTTEDSAIYYCAISASYRYDDLFAYWGQGTLVTVSA
VL: QIVLTQSPAIMSASPGEKVTMTCSASSSVSSMHWYQQKSGTSPKRWIYDTSKLASGVPARFSGSGSGTSYSLTISSMETEDAATYYCQQWNSNPPTFGAGTKLELK
notes: Recombinant murine antibody expressed in CHO-S cells and used APC-labeled in the assays; also called 1F11-APC; murine version 1F11
By EC50 is commonly meant the concentration needed to bring the measured effect to its halfway point. Consider B2, for which the binding result in test [4] was “no binding (tested: log 3.9 on the axis (about 8000 ng/ml))”. Moreover, the EC50 in test [5] came out at 0.0393 µg/mL; in test [6] it was 0.0629 µg/mL; in test [7] it was 0.0464 µg/mL.
